This is an account of results in PMC6908617, “Evolutionary conservation of the intrinsic disorder-based Radical-Induced Cell Death1 hub interactome” (Scientific Reports, 2019).

Usually Kd stands for the constant that tells how readily two partners part at equilibrium. The term stoichiometry N denotes the number of molecules, sites or subunits per partner or assembly.

The labels stand for the following.
T1: HvNAC013(176–346) (Hordeum vulgare (barley), UniProt F2EJH0 176-346)
T1 construct: HvNAC013, barley (Hordeum vulgare) NAC transcription factor, ID AK376297.1, residues 176-346; also called barley ortholog of ANAC046; source: plasmid from previous work
T1 sequence (looked up): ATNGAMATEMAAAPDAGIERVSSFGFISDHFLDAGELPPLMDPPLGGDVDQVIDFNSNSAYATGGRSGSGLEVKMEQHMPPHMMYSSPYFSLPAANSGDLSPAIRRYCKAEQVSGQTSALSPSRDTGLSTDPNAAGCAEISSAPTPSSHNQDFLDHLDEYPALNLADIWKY

B1: ANAC087(315–335) (peptide, UniProt Q9FK44 315-335, looked up)
chain: MVNGSKSYEDLCDLRGDLWDF
notes: NAC transcription factor ANAC087, Arabidopsis thaliana, AT5G18270, residues 315-335
B2: ANAC013(254–274;L266I) (peptide, UniProt F4IED2 254-274, looked up)
chain: NLEEDMYLEINDIMEPEPEPT
notes: ANAC013, Arabidopsis thaliana, AT1G32870, residues 254-274 with Leu266 to Ile; Probably made from the ANAC013(254–274) plasmid of previous work and purified in the same way; also called AtANAC013(254–274;L266I)
B3: AtDREB2A(244–272) (peptide, UniProt O82132 244-272, looked up)
chain: WPNDVDQSHLDSSDMFDVDELLRDLNGDD
B4: AtDREB2A(244–272;L264I) (peptide, UniProt O82132 244-272, looked up)
chain: WPNDVDQSHLDSSDMFDVDEILRDLNGDD
notes: DREB2A, Arabidopsis thaliana, AT5G05410, residues 244-272 with Leu264 to Ile; source: mutation by QuikChange
B5: AtRCD1-RST(499–572) (domain or fragment, Arabidopsis thaliana, UniProt Q8RY59 499-572, looked up)
chain: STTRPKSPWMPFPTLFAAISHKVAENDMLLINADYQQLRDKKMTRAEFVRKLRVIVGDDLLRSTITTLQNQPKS
notes: RST domain of Radical-Induced Cell Death1 (RCD1), Arabidopsis thaliana, residues 499-572; also called AtRST(499–572); Arabidopsis RST domain

For test [1], the target named is GmDREB2A(273–290) (Glycine max (soybean)). Put plainly: ITC; RST domain in the syringe (100–300 µM) titrated into the TF fragment in the cell (10–30 µM); 25 °C; 50 mM Hepes, pH 7.4, 100 mM NaCl; one set of sites model.
Test [2] has as its target ANAC013(254–274) (Arabidopsis thaliana) (UniProt F4IED2). Described as above.
The target in test [3] is B3. The test is described as above.
Test [4] concerns the target RCD1 RST (Arabidopsis thaliana) (UniProt Q8RY59). The note with it: cited from earlier work.
The target in test [5] is RCD1 499-572 (Arabidopsis thaliana) (UniProt Q8RY59). Put plainly: ITC. The conditions noted are these: cited from earlier work.
The target of test [6] is B5. Put plainly: ITC; ANAC087(315–335) in the syringe (100–300 µM) titrated into the RST domain in the cell (10–30 µM); 25 °C; 50 mM Hepes, pH 7.4, 100 mM NaCl; one set of sites model. The note with it: both partners purified. A general note: ITC needs no label: the signal is the heat of the interaction.
The target of test [7] is B5. Kind of test: ITC; RST domain in the syringe (100–300 µM) titrated into the TF fragment in the cell (10–30 µM); 25 °C; 50 mM Hepes, pH 7.4, 100 mM NaCl; one set of sites model. The conditions noted are these: both partners purified.
In test [8] the target is HvDRF1.1(255–273) (Hordeum vulgare (barley)). Described as above.
The target of test [9] is T1, HvNAC013(176–346). The description is as above. The conditions noted are these: both partners purified.

Where two headings read alike, the source gives them in different places.

ANAC013(254–274) (Arabidopsis thaliana), sequence (F4IED2 254-274): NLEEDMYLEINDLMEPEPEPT

On to “GmRCD1-RST(483–583) (domain or fragment)”, for which the Kd was 2590 nM in test [1], 526 nM in test [2] and 320 nM in test [3]. Further, the dH in test [1] was -5.62 kcal/mol; in [2] it was -8.77 kcal/mol; in [3], -9.25 kcal/mol. Further, the stoichiometry N in test [1] was determined as 0.98; in test [2] it was 0.94; in test [3], 0.95.
For ANAC046 (from UniProt Q9SQQ6), in test [4], the dissociation constant (Kd) is 609 nM.
Regarding ANAC013 254-274 (from UniProt F4IED2), the Kd in test [5] was 9 nM.
B1: in test [6], binding was put at a Kd of 1750 nM, the dH was -3.8 kcal/mol and the “stoichiometry N” value was determined as 0.93.
With B2, the Kd in test [7] worked out at 223 nM.
Same read-out and setting: the same measure for B3: 16 nM; for B4: 39 nM.
B5: the Kd turned out to be 397 nM in test [1], 450 nM in test [8] and 343 nM in test [9]. Further, the dH in [1] was -8.34 kcal/mol; in [8], -11.6 kcal/mol; in test [9], -1.08 kcal/mol; in [3] (both partners purified), -15.1 kcal/mol. The entries for the “stoichiometry N” value in test [9] and in test [3] (both partners purified) were 1.03 and 0.9, respectively.
